According to the supplement of paper PMC10567573:

B1: ZBTB22 (parent)
chain: HTGLKPYECGVCAKKFMWRDSFMR
B2: RSPH3 (parent)
chain: VDVQTELYLEEIADRIIEVDMECQ

Variants of: B1
Experiment: protein stability index of a GFP-peptide fusion (GPS, HEK-293T) (PSI 1-6); higher = more stable
Conditions: c terminus: a fixed tail appended
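Also: lentivirally expressed fusions sorted by FACS into six bins by GFP to DsRed ratio, PSI derived from sequencing read proportions per bin multiplied by bin number.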

Protein stability index of substitutions, site by site:
H1: D 1.45, A 3.04, Q 2.71
R19: H 2.12, F 1.55, D 1.88, W 1.77, E 1.58
T2: E 2.67, M 1.17, N 2.28, K 2.14
F22: S 1.66, D 3.47, C 2.21, R 1.56, Y 1.89, W 1.53
M17: A 2.39, Y 1.53
K5: I 2.05, L 1.92, S 1.96
G10: P 1.92, A 2.82
R24: F 2.3, Q 1.6, T 3.9
C9: M 2.58, V 2.02, H 1.48, L 2.75, G 2.23
P6: K 3.36, L 2.99, E 2.97
D20: Y 2.74, C 3.48, Q 1.74
G3: E 3.34, S 2.62, L 1.69, N 3.32, I 2.91, C 2.47
S21: T 1.73, W 2.84, R 1.08, P 3.07
E8: D 2.94, L 1.49
A13: H 2.56, Q 1.55
L4: F 2.27, C 1.64, N 1.37, A 1.62
M23: N 2.22, W 2.22, H 2.79, K 1.92, A 3.12, L 1.85, V 1.96, I 1.88, S 2.46, T 2.71
F16: H 1.6, A 1.1, D 2.45
Y7: S 1.97, N 2.43, F 2.27, Q 1.77, I 3.53
W18: S 1.52, V 2.43, L 3.88, Y 3, I 1.57
K14: L 1.82, T 2.19, I 1.66, W 2.78
K15: D 2.52, S 2.12, M 2.88, Y 2.76, F 2
C12: G 3.24, S 2.56, N 2.56, K 2.58
V11: P 3.87, T 1.83, F 2.4, D 3.26, H 2.37, G 1.25

Variants of: B2
Experiment: as above
Conditions: c terminus: a fixed tail appended

Protein stability index of substitutions, site by site:
Y8: I 1.71, N 4, E 4.48, G 4.65, Q 4.25, M 2.34, R 3.11, F 1.92, H 3.85, W 2.51, A 4.03, S 3.65, T 3.5, D 4.25, P 3.77, C 3.04, V 2.85
E11: R 2.22, Q 2.73, A 1.95, C 2.83, S 2.02, D 1.82, G 2.48, Y 2.88, I 3.16, F 1.89, M 3.38, T 2.41, P 2.98, H 2.23, N 3.26, K 2.85
A13: R 2.27, F 2.41, K 3.05, W 1.65, Q 3.05, N 3.2, P 3.53, M 1.58, T 2.62, I 2.22, E 2.87, S 2.57, H 2.5, G 2.95, Y 1.53, C 2.31, D 3.9, V 2.17
Q4: M 2.07, C 2.29, K 2.43, G 3.62, P 2.39, N 1.85, L 1.97, V 3.19, D 1.45, E 2.32, H 3.22, S 2.7, A 2.19, T 2.47, Y 1.66, W 2.27, F 3.48
I12: L 1.72, F 1.61, W 1.12, E 4.84, A 4.36, V 2.91, Y 2.96, K 4.77, D 4.39, P 4.53, R 4.25, C 3.22, H 4.28, G 4.63, T 4.42, M 3.11, S 4.98, Q 4.37, N 4.46
R15: C 1.54, A 2.55
V3: K 2.7, P 3.36, D 2.66, M 2.26, Q 3.04, S 2.56, R 3.38, W 2.14, H 2.4, L 3.01, G 3.74, C 2.35, T 2.92, A 3.22, N 2.99, E 2.66, Y 1.85
V1: I 1.64, Q 3.25, G 2.86, P 3.11, Y 1.94, T 3.75, D 3.3, W 2.44, F 1.55, H 3.24, L 1.72, R 2.57, S 3.88, A 3.1, E 3.11, C 2.36, M 2.39, N 3.75, K 2.79
L9: F 2.21, V 2.91, I 2.33, S 4.92, H 4.71, G 4.44, W 1.97, N 5.14, P 4.5, E 5.12, K 4.65, Q 5.62, C 3.4, T 4.38, D 5.51, R 4.19, M 3.33, Y 2.79, A 4.01
T5: Y 3.42, R 3.09, Q 2.52, C 1.75, P 3.27, S 2.5, N 3.23, M 2.38, H 2.42, A 2.3, K 3.87, E 3.08, G 2.46, F 2.96, D 3.17
D2: R 1.76, E 2.51, K 1.91, I 2.61, G 1.81, S 1.81, L 2.6, Y 3.84, P 3.08, A 1.63, C 2.57, M 3.88, T 2.39, N 2.17, Q 1.72
L7: F 1.79, W 2.04, N 3.96, P 3.07, M 1.73, C 3.01, G 4.11, K 3.96, I 2.1, Q 3.41, E 4.3, A 3.2, T 3, V 1.45, Y 2.34, R 2.65, D 2.71, H 3.38, S 3.06
E6: A 1.73, R 2.52, L 1.65, P 3.41, N 2.18, M 3.63, Q 2.14, D 2.03, F 1.64, K 2.44, W 2.21, H 2.19, G 3.25, S 2.39, C 1.57, V 2.24, T 1.83
E10: S 2.39, T 1.86, N 2.06, Q 1.93, Y 3.16, H 2, D 2.54, P 3.62, R 2.15, W 3.73, F 2.25, A 1.53, C 1.58, G 2.42, K 2.48
D14: H 1.55, K 1.93, P 2.45, S 2.08, A 1.94, N 2.11, E 1.92, W 3.47, Q 2.32, T 1.93
